Test results published in the supplement of paper PMC12042874.
± gives the uncertainty stated by the source.

assay: amyloid nucleation score (Sup35N fusion, yeast selection) (log enrichment); library NNK3; higher = more nucleation; inactive = no reads after selection
In short: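 Sup35N was fused to peptides of 20 random codons and expressed in psi-negative yeast, which were induced with 100 μM copper sulfate for 24 hours and then grown on medium lacking adenine and uracil for 7 days at 30°C. Plasmid inserts from input and output were sequenced on Illumina. The nucleation score is the DiMSum log enrichment of output over input reads, centred on the mode score of non-aggregating sequences. Sequences with under 100 input reads were left out, and random libraries had three technical output replicates.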

Amyloid nucleation score, 2.41 ± 0.06:
VECNIEIHNISSFPSTEKNQ

Amyloid nucleation score, 1.55 ± 0.076:
IGLSLGCVFVMDNVLNARN

Amyloid nucleation score, 0.286 ± 0.56:
CPYALMWSLSYSWSFPYRMS

Amyloid nucleation score, 0.663 ± 0.21:
CVDTDLVERWIAWVSSGVML

Amyloid nucleation score, 2.66 ± 0.075:
WVTIESNLCIVSFNRSRSQK

Amyloid nucleation score, 1.36 ± 0.064:
ICVLCSGIMKMCCAMGDLSV

Amyloid nucleation score, 2.72 ± 0.069:
NRVAYTAQCQIIFCVGGYCL

Amyloid nucleation score, 0.479 ± 0.2:
TGSSTDLSNYNGLGYLLNNS

Amyloid nucleation score, 1.83 ± 0.056:
NVIMVFVLCCFWCEGTQKHV

Amyloid nucleation score, 0.764 ± 0.19:
TSGAANHYLYSSVSWTFFLL

Amyloid nucleation score, -0.315 ± 0.9:
EKDISAAMRMHGR

Amyloid nucleation score, 0.311 ± 0.25:
FLAFSMEYCYVPHFWKVSLS

Amyloid nucleation score, -0.474 ± 1:
FRYQDNDLLAHAA

Amyloid nucleation score, 0.332 ± 0.23:
RLVVVYLGTNSTSKEDISC

Amyloid nucleation score, 0.075 ± 0.29:
ICGMWGFDAMRITSWNVPNG

Amyloid nucleation score, 0.062 ± 0.23:
LTMALYWTCSLTHILSYGID

Amyloid nucleation score, 0.057 ± 0.93:
IWVLSCRLISRTRFICDRRM

Amyloid nucleation score, -0.926 ± 2.4:
QASIVSTG

Amyloid nucleation score, 1.82 ± 0.1:
VVNILW

Amyloid nucleation score, 1.82 ± 0.067:
CIFTIFNYQTLIELSHYFSR

Amyloid nucleation score, inactive:
LTFISLSLGPDSRFSMTKYY
IIRVGMLWVGKLLRRSWGEQ
SAQPESY
SEHMNGWHHNLTQCEENFRN
GLLFYYMILLGELLQR
QRIHGLF
CSLQLASDQGFSQRDDCTVH
MINWYGRTNPLCDPGLLRGI
HSLHMKVCCWGSCEIFSMVR
LCVPTSDRELGYRWFRAEWH
TAKPYRDDNNGYSAYIHPCS
SSFPYFTTYVHHVG
HAYSWVLFAVMSLSRLPTWN
SKTMALMYLSFQPHYLYTLC
MLNLRCSKCGMMPLRNRIVS
YVSKVYLDH
MLFHDSVSSTWRIFELCSRC
FVDWFLVGCRMVMLDRVLAS
QGWPRKITVILFWILQSGSR
VKRVKMLAYPRHFLLMMSGK
VIHEDMVLTGF
INTEGLVVIVGGRLYVILRV
YLFSELYMLNLSRFAK
SFQFMFSRSSNRDFCILIQR
PFACAVAKNPHES
SGCGLMQNGMSCLIEFTVAK
SVDDSFLYLYRYKGFCPNF
VLCAYK
WFYVDLFCGWTRDVNAASCL
NEIQAYIRWSI
FKRYY
IFSMMLF
VFRLKSVLSGLLQAHRLAGI
FMPMFLRICCTMMLMWLFAC
NNSTRLIWWCMVKMRYNHCE
AMVRNVYSCLRNRTCFLSSL
TLVVMEIIQLLSFSHGPFI
ISVLVKWLVAERTSYWIMIP
FLLNLMIHLFYLVLKSRNQN
IDIVNL
DRVITSNFFSSVWTQT
IMKACGDK
SYDFIMVLPHEDRIDIVQQF
VDYSRALTAYVCIPANFSVP
WLSFFRWR
NIVAVRCWFLDFPQDD
DARNET
FGCRSNDNQ
LCGDYGV
HRYYCRLVFVEQTRDNIQPW
REAYDLFSCIDYVLNFMFNY
SSYLDTNWRMP
VYCLRWKLYMLNEVS
IVCCQYQNYLNGSPLNIVLI
PVKLC
DFHDLEWILNIEGACEEQGT
INITLWWVTVEFNMSARVQI
APSPPMNFSPCKLDLPCWAI
ISSVQISRAFPQHRTRRN
NINRFLDLSSWIGYQNGYKA
SYRAARNFHMFLLYWHGTRW
SSYLPHHISSQRLSSQEPAD
MLLYYEEGLCIFLLSLNPVC
KVYRKKPIGYVECLLSPLKA
VRALNTAAWLSNTRCLGMDA
TNYYFQNV
MVRSRLSASRRSICGPIISA
ASLRCINFMCWLSQTLGVLL
VVLDSVVWGFDELSRLMSGA
LPHVAVEAVTLAMWVE
PDDCVGRSD
YFSKVIVDLKNSCIL
LTNRADE
TCYSIERFACY
FDDYLKSYFKQYSNDHVG
MDKYTRTRPQTRGRAVSCYY
RIKLRLFTTHEYCSRDRCSD
LKFEVVMVLFSTIC
SRPILLLSFCFRCAIC
LDEGPPSAWVFATKTNFCES
HCGRTEKDGQLCCENLSGFS
LYWRSTGVSVWVRWVLYG
SLIYTKYLLMYFIILFLDGG
LSILHYSLNCLYHRSYMCIL
TACMRNVRTNIGKHTSQYLH
CCAGSLLLNRVQV
VSLTGWSR
ILLMLSVQGNLLKRMRILSM
YLLMTGVWWYYQMCVVVYM
GAGTGQWLDSFGVEIHHPRS
CALGEKLFSGSAYMVYPG
SLTRQLEPADNTDPRCVKSV
KIGQSFSV
KTIFSDVFYLRALWCSLNRG
LDLFVV
LRGITLSMQGCTDWFVMYLC
DMCIHWDEGNAWWYKSMASV
DRYLCVVKCSVVTGIDQMSM
IYLKYSSYRNSLIILAVD
DRKNCRRSHVWVMRMGNWYC
NRYRTYVCLKDKRRSFKSGM
REAASQIHSEDKMGGWYHRL
CGRGDSVLSI
NLKFRRFTGNMCSTPKVCLK
LDKEFAYIYSYC
YYAFPLYKKSFYRIPTNVWA
YGTMFLENTYNPFPVGSHVF
MGSGIFCDLFHGVMYCMQVR
DYNILQSRMSYRAYMCSLHV
KTISC
AIKYICSFSSVSVMR
SLMDVN
TSSQKDIWQDVYGLLFWAQS
YRGKIGTWECGVISYETAAT
LSYNRKEYGNRPGFSEYSST
LKHVWLSDRALGSSLTCMAG
VAWAASARRHMYIPDRDSCA
ASLTYY

Amyloid nucleation score, 1.91 ± 0.091:
GLVSVLSDEMYCFWQYSCYS

Amyloid nucleation score, 1.48 ± 0.1:
RRTWGSMYTKVLSISFLGPG

Amyloid nucleation score, -1.1 ± 1.4:
YDGQMVRVRLYPSWEQVYCV

Amyloid nucleation score, 1.35 ± 0.13:
SSERGMLVDNVLSHSWMFCI

Amyloid nucleation score, -0.438 ± 0.9:
NISLLWDGAFCIYVCLLWRG

Amyloid nucleation score, -0.507 ± 0.98:
WYTVRSKYANHVNDRHSRRW

Amyloid nucleation score, 0.176 ± 0.77:
APLSNFALHIPEELRLESSF

Amyloid nucleation score, -0.213 ± 0.9:
EYGSATVVWNHYFSPWVRFF

Amyloid nucleation score, 1.03 ± 0.089:
TVEVNCCYLEGNVV

Amyloid nucleation score, 2.17 ± 0.06:
NIYFLVRDSSRIRHKSVGWQ

Amyloid nucleation score, -0.333 ± 0.88:
STQGCLCRYPG

Amyloid nucleation score, 2.22 ± 0.079:
YIYVIGWGNVLCGI

Amyloid nucleation score, 2.72 ± 0.053:
ILCAFTRVWCYTNGPYESGR

Amyloid nucleation score, 2.8 ± 0.068:
YGCCVSGMYVALGLQ

Amyloid nucleation score, 0.21 ± 0.53:
QSRSRSNARARWVVSKLSCS

Amyloid nucleation score, 0.939 ± 0.12:
RVYVAWTTCSADKKNSNIMQ

Amyloid nucleation score, -0.388 ± 0.75:
GKTSGCWSFFYILIS

Amyloid nucleation score, 0.679 ± 0.24:
IFYVGNTLIFFIYMNWNRTY

Amyloid nucleation score, 1.49 ± 0.089:
THESATSYLISGFGIGFIWC

Amyloid nucleation score, 0.06 ± 0.69:
THFNGEFWALSTVCMWGGRV
